Two molecules from patent publication US20210332115A1 (Sanofi, published 2021) can be followed below.

The target of experiment [1] is T1, Homo sapiens factor Bb protein (human, UniProt P00751 260-764).
T1 construct: Bought from CompTech (A155); also called complement factor Bb; human factor Bb
The experiment can be described thus: SPR single cycle kinetics; ratio against VH0/Vκ0. Summed up:
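Protein A-captured IgG (~63 RU) was run at 25 °C in HBS-P+ pH 7.4 against factor Bb at 0.78–6.25 nM in four two-fold steps, with 200 s association per step, one 200 s dissociation and reference subtraction. Relative KD is the KD of VH0/Vκ0 divided by the KD of the variant from the same run.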

Experiment [2] deals with T2, C2 (Comptech A112) (UniProt P06681 21-752).
T2 sequence (looked up): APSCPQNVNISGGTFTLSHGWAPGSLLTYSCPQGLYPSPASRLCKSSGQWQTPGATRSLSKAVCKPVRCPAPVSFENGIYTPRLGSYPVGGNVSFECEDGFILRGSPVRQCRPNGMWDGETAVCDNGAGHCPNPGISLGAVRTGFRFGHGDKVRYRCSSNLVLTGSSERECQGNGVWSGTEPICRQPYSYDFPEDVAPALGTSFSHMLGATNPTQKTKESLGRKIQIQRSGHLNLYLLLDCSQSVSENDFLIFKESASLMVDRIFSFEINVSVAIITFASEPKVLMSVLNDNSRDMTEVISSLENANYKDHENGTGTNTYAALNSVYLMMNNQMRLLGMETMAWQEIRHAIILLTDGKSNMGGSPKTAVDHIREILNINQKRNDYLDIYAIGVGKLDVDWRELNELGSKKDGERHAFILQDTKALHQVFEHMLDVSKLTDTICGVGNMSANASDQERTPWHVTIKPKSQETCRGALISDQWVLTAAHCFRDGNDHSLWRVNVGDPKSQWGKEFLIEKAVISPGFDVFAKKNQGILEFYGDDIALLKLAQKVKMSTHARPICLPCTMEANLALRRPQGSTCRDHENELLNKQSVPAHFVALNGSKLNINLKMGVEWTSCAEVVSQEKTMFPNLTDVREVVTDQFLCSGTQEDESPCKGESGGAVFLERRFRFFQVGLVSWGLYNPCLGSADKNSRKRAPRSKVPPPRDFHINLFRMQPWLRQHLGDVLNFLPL
The experiment in a line: ELISA, target coated at 2.5 µg/mL, biotinylated antibody titrated, streptavidin-HRP, OD450 background subtracted. How it is done:
Briefly, complement and plasma proteins were coated onto ELISA plates at 2. 5 μg/mL in PBS overnight at 4° C. Plates were then blocked with Casein for 1 hour at room temperature and washed four times with 1× DPBS/0.05% Tween-20 followed by a single wash with 1× DPBS. Serial dilutions starting at 50 μg/ml of biotinylated chimeric parent or VH6/VK7-IgG4v2 were added to the plate in PBS/0.1%casein/0.1%Tween-20 and incubated for 2 hours at room temperature. Plates were washed as described and a 1:10,000 dilution of streptavidin-HRP (Southern Biotech 7100-05) in PBS/0.1% casein/0.1% Tween-20 was added to the plate and incubated for 30 minutes at room temperature. Plates were again washed and Ultra TMP ELISA (Thermo 34028) was added to the plate for 1 minute, followed by stop solution). OD 450 nm was read in a plate reader and background at 620 nm was subtracted. Both the chimeric parent (FIG. 8A) and the humanized variant (FIG. 8B) show complete specificity for factor Bb.
In general terms: In an ELISA, binding on a coated surface is turned into a signal by an enzyme label.

T1 sequence (P00751 260-764 limits assumed): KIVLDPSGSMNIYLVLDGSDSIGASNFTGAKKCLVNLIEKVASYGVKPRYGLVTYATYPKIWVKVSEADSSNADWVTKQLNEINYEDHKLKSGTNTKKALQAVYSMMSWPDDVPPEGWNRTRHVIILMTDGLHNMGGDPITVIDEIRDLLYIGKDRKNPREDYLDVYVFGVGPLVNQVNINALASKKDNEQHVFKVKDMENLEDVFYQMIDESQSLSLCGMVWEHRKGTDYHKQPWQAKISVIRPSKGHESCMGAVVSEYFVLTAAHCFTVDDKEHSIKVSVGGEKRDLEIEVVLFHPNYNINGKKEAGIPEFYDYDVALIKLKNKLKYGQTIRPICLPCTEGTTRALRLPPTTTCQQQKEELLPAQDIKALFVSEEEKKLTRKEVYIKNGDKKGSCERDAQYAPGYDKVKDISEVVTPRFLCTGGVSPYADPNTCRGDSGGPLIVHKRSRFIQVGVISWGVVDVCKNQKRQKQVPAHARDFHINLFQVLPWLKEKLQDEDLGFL

B1: VH0/Vκ0 (Chimeric) (antibody, V domains shown)
VH: EVQLVESGGALVKPGGSLKLSCAASGFTFSNYAMSWVRQTPEKRLEWVATISNRGSYTYYPDSVKGRFTISRDNAKNTLYLQMSSLRSEDTALYYCARERPMDYWGQGTSVTVSS
VL: DIVMTQSHKFMSTSVGDRVSITCKASQDVGTAVAWYQQKPGQSPKLLIYWASTRHTGVPDRFTGSGSGTDFTLTITNVQSEDLAVYFCHQHSSNPLTFGAGTKLELK
notes: also called chimeric antibody
For the molecule B1, in experiment [1], the “Relative KD” value was found to be 1.

B2: VH6/Vκ7-IgG4v2 (antibody)
heavy: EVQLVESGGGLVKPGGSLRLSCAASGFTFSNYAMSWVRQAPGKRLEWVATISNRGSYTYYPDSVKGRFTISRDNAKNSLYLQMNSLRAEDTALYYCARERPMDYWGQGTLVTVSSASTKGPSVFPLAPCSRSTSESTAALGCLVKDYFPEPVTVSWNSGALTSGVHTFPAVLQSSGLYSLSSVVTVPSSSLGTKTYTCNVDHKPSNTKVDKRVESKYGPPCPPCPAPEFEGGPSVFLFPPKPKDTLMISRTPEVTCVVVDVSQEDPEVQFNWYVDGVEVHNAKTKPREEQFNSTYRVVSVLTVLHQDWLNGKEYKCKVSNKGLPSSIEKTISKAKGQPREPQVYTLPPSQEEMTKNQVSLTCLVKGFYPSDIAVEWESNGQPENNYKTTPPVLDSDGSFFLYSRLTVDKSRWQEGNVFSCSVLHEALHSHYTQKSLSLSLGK
light: DIQMTQSPSTLSASVGDRVTITCKASQDVGTAVAWYQQKPGKAPKLLIYWASTRHTGVPDRFSGSGSGTDFTLTISSLQAEDFAVYFCHQHSSNPLTFGQGTKLEIKRTVAAPSVFIFPPSDEQLKSGTASVVCLLNNFYPREAKVQWKVDNALQSGNSQESVTEQDSKDSTYSLSSTLTLSKADYEKHKVYACEVTHQGLSSPVTKSFNRGEC
notes: also called VH6/VK7-IgG4v2; VH6/VK7-IgG4v2_HEK
Turning to B2, the binding result in experiment [2] was “no binding”.
